The target in test [1] is T1, murine CD39 expressed on CHO cells (murine, UniProt P55772 1-510).
T1 construct: whole, on cells; also called CHO-moCD39; moCD39
T1 sequence (looked up): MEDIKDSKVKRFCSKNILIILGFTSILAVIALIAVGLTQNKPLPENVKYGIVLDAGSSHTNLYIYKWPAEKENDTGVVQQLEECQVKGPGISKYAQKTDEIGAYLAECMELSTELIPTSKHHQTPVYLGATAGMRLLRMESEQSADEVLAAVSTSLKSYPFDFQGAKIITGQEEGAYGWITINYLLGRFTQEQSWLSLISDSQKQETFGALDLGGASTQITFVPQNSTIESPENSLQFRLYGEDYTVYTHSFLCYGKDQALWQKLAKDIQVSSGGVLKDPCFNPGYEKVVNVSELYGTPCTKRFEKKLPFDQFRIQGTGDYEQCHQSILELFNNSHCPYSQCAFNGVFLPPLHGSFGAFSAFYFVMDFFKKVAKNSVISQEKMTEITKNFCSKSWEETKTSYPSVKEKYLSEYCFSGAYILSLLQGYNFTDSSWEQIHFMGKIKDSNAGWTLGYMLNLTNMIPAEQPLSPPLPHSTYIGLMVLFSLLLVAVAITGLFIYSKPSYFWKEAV
Kind of test: flow cytometry titration on CHO-moCD39 cells. On the procedure:
(§1) Cells were incubated with various concentration of unlabeled anti-CD39 antibody from 30 μg/ml to 5×10-⁴ μg/ml, for 30 minutes at 4° C. After washes, cells were incubated with Goat anti-mouse H+L labeled secondary antibody for 30 min at 4° C.

The target of test [2] is T2, human CD39 (vascular CD39, NTPDase1) expressed at the surface of cells (human, UniProt P49961 1-510).
T2 construct: also called huCD39; CHO-huCD39
T2 sequence: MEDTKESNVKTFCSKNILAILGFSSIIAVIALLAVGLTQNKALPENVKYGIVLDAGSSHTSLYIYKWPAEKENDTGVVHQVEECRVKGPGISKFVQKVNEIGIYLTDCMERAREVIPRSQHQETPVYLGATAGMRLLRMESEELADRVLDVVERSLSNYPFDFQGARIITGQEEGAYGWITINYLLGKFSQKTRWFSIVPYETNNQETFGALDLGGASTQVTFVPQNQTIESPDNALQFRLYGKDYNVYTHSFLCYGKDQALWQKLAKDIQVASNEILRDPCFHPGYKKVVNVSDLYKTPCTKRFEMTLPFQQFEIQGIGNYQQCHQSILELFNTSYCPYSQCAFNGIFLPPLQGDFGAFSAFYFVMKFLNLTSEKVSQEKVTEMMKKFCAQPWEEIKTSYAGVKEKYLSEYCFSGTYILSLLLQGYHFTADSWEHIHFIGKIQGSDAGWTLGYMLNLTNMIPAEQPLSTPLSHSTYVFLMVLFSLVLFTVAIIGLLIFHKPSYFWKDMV
Kind of test: flow cytometry on Ramos lymphoma cells, first set of experiments. On the procedure: as §1

Another test has as its target T3, human CD39 mutant 15 (human, UniProt P49961 1-510).
T3 construct: Expressed on Hek-293T cells; also called M15
T3 chain: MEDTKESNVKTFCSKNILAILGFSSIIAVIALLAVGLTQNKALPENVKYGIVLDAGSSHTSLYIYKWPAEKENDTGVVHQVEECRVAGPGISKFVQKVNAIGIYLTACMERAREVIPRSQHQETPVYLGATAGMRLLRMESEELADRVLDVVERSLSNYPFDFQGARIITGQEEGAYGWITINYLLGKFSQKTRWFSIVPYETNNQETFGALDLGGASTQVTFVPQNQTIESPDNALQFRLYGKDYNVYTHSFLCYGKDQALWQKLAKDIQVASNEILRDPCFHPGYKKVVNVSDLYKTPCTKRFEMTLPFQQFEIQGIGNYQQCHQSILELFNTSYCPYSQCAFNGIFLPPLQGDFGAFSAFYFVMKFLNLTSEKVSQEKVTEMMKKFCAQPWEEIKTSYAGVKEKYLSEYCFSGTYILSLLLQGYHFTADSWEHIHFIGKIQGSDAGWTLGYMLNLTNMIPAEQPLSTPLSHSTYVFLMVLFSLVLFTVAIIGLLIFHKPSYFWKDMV
The test can be described thus: flow cytometry on Hek-293T cells expressing CD39 mutant 15 (panel M15); unstained (US) median 8,98; antibody concentration not shown. On the procedure:
(§2) Mutants were transfected in Hek-293T cells, as shown in the table 1, using numbering of SEQ ID NO: 1. […] Mutant 19 includes substitutions at residues R138, M139 and E142.
(§3) In order to define the epitopes of the further anti-CD39 antibodies of Example 5, they were tested for loss of binding to the panel of CD39 mutants as described in Example 1 and Table 1. Mutants were transfected in Hek-293T cells, as shown in the table 1, using numbering of SEQ ID NO: 1.Dose-ranges of test antibodies (10-2.5-0.625-0.1563-0.0391-0.0098-0.0024-0.0006 μg/ml) are tested on the 20 generated mutants by flow cytometry.

A further test concerns the target T4, human CD39 mutant 19 (human, UniProt P49961 1-510).
T4 construct: Expressed on Hek-293T cells; also called M19
T4 chain: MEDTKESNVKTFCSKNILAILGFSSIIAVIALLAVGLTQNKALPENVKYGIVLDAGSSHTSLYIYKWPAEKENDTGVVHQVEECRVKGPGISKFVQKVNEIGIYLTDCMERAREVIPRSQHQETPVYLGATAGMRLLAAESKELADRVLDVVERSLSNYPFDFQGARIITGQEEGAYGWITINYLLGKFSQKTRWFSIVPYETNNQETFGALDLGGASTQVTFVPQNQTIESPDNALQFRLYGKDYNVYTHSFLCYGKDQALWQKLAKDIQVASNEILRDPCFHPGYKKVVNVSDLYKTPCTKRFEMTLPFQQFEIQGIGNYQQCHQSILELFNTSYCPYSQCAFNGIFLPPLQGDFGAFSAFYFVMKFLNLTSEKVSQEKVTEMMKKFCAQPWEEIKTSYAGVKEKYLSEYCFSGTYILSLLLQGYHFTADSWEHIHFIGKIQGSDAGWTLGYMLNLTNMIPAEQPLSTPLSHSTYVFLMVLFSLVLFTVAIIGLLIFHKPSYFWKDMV
The test can be described thus: flow cytometry on Hek-293T cells expressing CD39 mutant 19 (panel M19); unstained (US) median 8,98; antibody concentration not shown. On the procedure:
as §2, §3

B1: antibody I-394 (antibody, V domains shown)
VH: EVQLQQSGPELVKPGASVKMSCKASGYTFTDYNMHWVKQSHGRTLEWIGYIVPLNGGSTFNQKFKGRATLTVNTSSRTAYMELRSLTSEDSAAYYCARGGTRFAYWGQGTLVTVSA
VL: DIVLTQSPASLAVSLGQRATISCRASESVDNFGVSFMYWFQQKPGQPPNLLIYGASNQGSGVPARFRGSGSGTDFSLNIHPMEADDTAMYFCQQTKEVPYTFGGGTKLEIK
notes: Mouse variable regions; Produced in CHO with human IgG1 constant domains carrying L234A/L235E/G237A/A330S/P331S (Kabat EU numbering) and a human Ck constant domain
Take B1: the binding result in test [1] is “no binding (tested: 30 µg/ml)”. Further, the midpoint of the response in test [2], the EC50, lay at 0.16 µg/mL. Besides, the “Median : Comp-Alexa Fluor 647-A” value amounted to 6360 in the test with human CD39 mutant 15 and 24.4 in the test with human CD39 mutant 19.
